From PMC4382515 come the findings set out here.

Substrate in the data set: N[C@@H](CCC(=O)O)C(=O)O
Briefly: purified protein. The note with it: pH 4.6; 25.0 °C.

B1: EcGadB (Escherichia coli K-12) (protein)
chain: MDKKQVTDLRSELLDSRFGAKSISTIAESKRFPLHEMRDDVAFQIINDELYLDGNARQNLATFCQTWDDENVHKLMDLSINKNWIDKEEYPQSAAIDLRCVNMVADLWHAPAPKNGQAVGTNTIGSSEACMLGGMAMKWRWRKRMEAAGKPTDKPNLVCGPVQICWHKFARYWDVELREIPMRPGQLFMDPKRMIEACDENTIGVVPTFGVTYTGNYEFPQPLHDALDKFQADTGIDIDMHIDAASGGFLAPFVAPDIVWDFRLPRVKSISASGHKFGLAPLGCGWVIWRDEEALPQELVFNVDYLGGQIGTFAINFSRPAGQVIAQYYEFLRLGREGYTKVQNASYQVAAYLADEIAKLGPYEFICTGRPDEGIPAVCFKLKDGEDPGYTLYDLSERLRLRGWQVPAFTLGGEATDIVVMRIMCRRGFEMDFAELLLEDYKASLKYLSDHPKLQGIAQQNSFKHT
As usually defined, the Km is the concentration of substrate that gives half-maximal velocity. As a reminder, the kcat/Km is the turnover number divided by the Michaelis constant. Consider B1, for which the Km was 1100 ± 180 µM and the kcat/Km came out at 13900 ± 2830 M⁻¹ s⁻¹.
